These results are taken from patent publication US6635802B1, “Nuclear transfer using cells cultured in serum starvation media containing apoptosis inhibitors” (The Texas A&M University System, priority 2000, dated 2003).

Holding throughout (assay type): cell-based
In experiment [1] the test system is porcine PGCs. Kind of experiment: Porcine PGCs plated in chambered slides in the absence of feeder layers, with or without growth factors; AP-positive cells counted. As to conditions: for Number of PGCs surviving in culture, in words: absence of feeder layers, 24, 48, 72 hours. As for the experimental part: FIG. 8. Freshly isolated PGCs were plated in chambered slides in the absence of feeder cells and incubated in media with no protease inhibitors or antioxidants (PES), with MAC (MAC) or with NAC (NAC), either with or without growth factors (G), for 24, 48 or 72 hours. Cells were fixed, stained for alkaline phosphatase (AP) as previously described, and counted (normalized to control; left vertical axis).
After culture, colonies were stained, counted and analyzed as described above. To determine the effects of MAC and NAC on porcine PGCs, cells were exposed to those inhibitors during the first half period of culture (4-5 days) or the last half period (4-5 days), respectively. In addition, to determine the effect of MAC and NAC in the absence of feeders, cells were plated on chambered slides previously coated with 0.1% gelatin and medium with or without inhibitors in the presence or absence of growth factors. Cells were fixed, stained for AP and counted at the interval of 24, 48, and 72 hours.
Freshly isolated PGCs were plated in chambered slides in the absence of feeders and incubated in media with or without growth factors (GF) and with or without MAC and NAC. Cells were fixed, stained for AP as previously described, and counted.

The test system of experiment [2] is Porcine embryonic fibroblast (PEF). Briefly: TUNEL assay (flow cytometry) of serum starved porcine embryonic fibroblasts. As to conditions: serum starvation 5 days, MAC 0.7 pM, NAC 1 mM, GSH 2 mM, serum starved without inhibitor 26.50. From the text:
Porcine embryonic fibroblast (PEF) were isolated from day 25-28 fetuses according to the methods previously described (Hogan et al., 1994). Briefly, porcine fetuses of day 25-30 (day 0=estrus) were removed from the uterus and rinsed with PBS+penicillin/streptomycin solution (PBS/PS). Head, limbs and internal organs were removed, and the carcasses were minced with razor blades or ground using a syringe head until they were the consistency of sludge. Then these were trypsinized 2-3 times using 0.25% trypsin+EDTA for 20 minutes. The supernatant fraction was removed and centrifuged to collect the cells. The cells were plated using DMEM+10% fetal bovine serum (FBS) and cultured up to 80-90% confluency before further passage.
(§1) Bovine embryonic fibroblasts (BEF) were isolated from the fetus with 3-5 cm crown-rump length. After two or three passages, cells were plated one million cells per plate (100 mm) with growth medium (DMEM) with 2 mM L-glutamine, 0.1 mM β-mercaptoethanol and 10% FBS. After 24 hours, cells were washed with PBS 3-5 times and then serum starvation medium with 0.5% FBS was added. In addition, cells were treated with serum starvation medium containing apoptosis inhibitors such as a2-macroglobulin (0.7 pM), N-acetylcysteine (1 mM) and glutathione (2 mM). Cells were treated with serum starvation with or without apoptosis inhibitors for 5 or 10 days. Then cells were trypsinized and counted.
After counting, cells were fixed and stained according to protocols with the APO-BRDU kit (Phoenix Flow Systems, San Diego, Calif.). […] To determine base line fluorescence, control cells were incubated without TdT. […] Following counterstaining with a propidium iodide/RNase A solution for 30 minutes in the dark, which allows simultaneous analysis of cell cycle position and apoptosis, cells were analyzed on a FACSCalibur™ flow cytometer (Becton Dickinson, San Jose, Calif.). Fluorescence emissions were measured at 582±21 nm for propidium iodide and 530±15 nm for fluorescein, without spectral compensation, after excitation at 488 nm by an argon-ion laser. […]
Background: In flow cytometry, cells or beads pass a laser one at a time.

Experiment [3] has as its system porcine PGCs. Briefly: In vitro culture of porcine PGCs on STO feeder cells with apoptosis inhibitors; AP-stained colonies counted.
For experiment [4], the system named is Bovine embryonic fibroblasts (BEF). Briefly: Cell cycle distribution (propidium iodide flow cytometry) of serum starved bovine embryonic fibroblasts. As to conditions: for Proportion of cells going into G0, in words: addition during the starvation period; for G2/M (%) / S (%): serum starvation 5 days; for G2/M (%) / S (%) / G0/G1 (%): MAC 0.7 pM, NAC 1 mM, GSH 2 mM; for G0/G1 (%): serum starvation (0.5% FBS) 5 days. As for the experimental part: as §1
Cells (1×10^6) were washed in 0.15 M NaCI, fixed in 70% ethanol, and stored at −20° C. overnight or until ready to be analyzed. For analysis, cells were centrifuged, rinsed with PBS, resuspended in 500 μl of a 0.05 mg/ml propidium iodide/0.1% Triton X-100/0.2 mg/ml RNase A solution, and incubated for a minimum of 30 minutes at room temperature in the dark. Cells were analyzed by flow cytometry to determine DNA content. Modfit LT™ (Verity Software House, Topsham, Me.) was used to model the cell cycle distribution within each sample.

Where [5] appears, read: Table 3 combined effects study: MAC 0.7 pM, NAC 1.0 mM, alone or together, normalized to control.

As for `CC(=O)N[C@@H](CS)C(=O)O` [NAC, N-acetylcysteine], the “Rescue of PGCs, in words” value with porcine PGCs [1] (absence of feeder layers and of growth factors, after 72 hr of culture) is recorded as “able to rescue the PGCs”. The “Number of PGCs surviving in culture, in words” value in the experiment on porcine PGCs [1] is “increased the number of PGCs surviving in culture”. Besides, the “5-day Apoptosis (%)” value in experiment [2] turned out to be 0.06%. In the experiment with porcine PGCs [3] (setting [5]), the “Normalized # of Colonies + SE” value was 2.73 ± 0.03. In experiment [4], the “Proportion of cells going into G0, in words” value is “did not affect the proportion of cells going into G0”; the “G2/M (%)” value is reported as 10%; the “S (%)” value is 2%; the “G0/G1 (%)” value turned out to be 88%.

B1: α2-macroglobulin (protein, UniProt P01023 24-1474, looked up)
Alpha-2-macroglobulin: SVSGKPQYMVLVPSLLHTETTEKGCVLLSYLNETVTVSASLESVRGNRSLFTDLEAENDVLHCVAFAVPKSSSNEEVMFLTVQVKGPTQEFKKRTTVMVKNEDSLVFVQTDKSIYKPGQTVKFRVVSMDENFHPLNELIPLVYIQDPKGNRIAQWQSFQLEGGLKQFSFPLSSEPFQGSYKVVVQKKSGGRTEHPFTVEEFVLPKFEVQVTVPKIITILEEEMNVSVCGLYTYGKPVPGHVTVSICRKYSDASDCHGEDSQAFCEKFSGQLNSHGCFYQQVKTKVFQLKRKEYEMKLHTEAQIQEEGTVVELTGRQSSEITRTITKLSFVKVDSHFRQGIPFFGQVRLVDGKGVPIPNKVIFIRGNEANYYSNATTDEHGLVQFSINTTNVMGTSLTVRVNYKDRSPCYGYQWVSEEHEEAHHTAYLVFSPSKSFVHLEPMSHELPCGHTQTVQAHYILNGGTLLGLKKLSFYYLIMAKGGIVRTGTHGLLVKQEDMKGHFSISIPVKSDIAPVARLLIYAVLPTGDVIGDSAKYDVENCLANKVDLSFSPSQSLPASHAHLRVTAAPQSVCALRAVDQSVLLMKPDAELSASSVYNLLPEKDLTGFPGPLNDQDNEDCINRHNVYINGITYTPVSSTNEKDMYSFLEDMGLKAFTNSKIRKPKMCPQLQQYEMHGPEGLRVGFYESDVMGRGHARLVHVEEPHTETVRKYFPETWIWDLVVVNSAGVAEVGVTVPDTITEWKAGAFCLSEDAGLGISSTASLRAFQPFFVELTMPYSVIRGEAFTLKATVLNYLPKCIRVSVQLEASPAFLAVPVEKEQAPHCICANGRQTVSWAVTPKSLGNVNFTVSAEALESQELCGTEVPSVPEHGRKDTVIKPLLVEPEGLEKETTFNSLLCPSGGEVSEELSLKLPPNVVEESARASVSVLGDILGSAMQNTQNLLQMPYGCGEQNMVLFAPNIYVLDYLNETQQLTPEIKSKAIGYLNTGYQRQLNYKHYDGSYSTFGERYGRNQGNTWLTAFVLKTFAQARAYIFIDEAHITQALIWLSQRQKDNGCFRSSGSLLNNAIKGGVEDEVTLSAYITIALLEIPLTVTHPVVRNALFCLESAWKTAQEGDHGSHVYTKALLAYAFALAGNQDKRKEVLKSLNEEAVKKDNSVHWERPQKPKAPVGHFYEPQAPSAEVEMTSYVLLAYLTAQPAPTSEDLTSATNIVKWITKQQNAQGGFSSTQDTVVALHALSKYGAATFTRTGKAAQVTIQSSGTFSSKFQVDNNNRLLLQQVSLPELPGEYSMKVTGEGCVYLQTSLKYNILPEKEEFPFALGVQTLPQTCDEPKAHTSFQISLSVSYTGSRSASNMAIVDVKMVSGFIPLKPTVKMLERSNHVSRTEVSSNHVLIYLDKVSNQTLSLFFTVLQDVPVRDLKPAIVKVYDYYETDEFAIAEYNAPCSKDLGNA
Turning to B1, in the experiment with porcine PGCs [1], the “Number of PGCs surviving in culture, in words” value is reported as “increased the number of PGCs surviving in culture”. Besides, the “5-day Apoptosis (%)” value in experiment [2] came out at 11.60%. Moreover, the “Normalized # of Colonies + SE” value in the experiment with porcine PGCs [3] (MAC (0.7 pM) 1-4 days (FH), Table 4 timing study) amounted to 1.21 ± 0.05. In the experiment with porcine PGCs [3] (MAC (0.7 pM) 5-8 days (LH), Table 4 timing study), the “Normalized # of Colonies + SE” value stood at 1.23 ± 0.09. The “Normalized # of Colonies + SE” value with porcine PGCs [3] (setting [5]) is on record as 2.00 ± 0.18. Also, in the experiment with porcine PGCs [3] (Table 6 protease inhibitors: MAC 0.7 pM, PA 50 μM, AEBSF 250 μM, TLCK 100 μM, normalized to control), the “Normalized # of Colonies + SE” value was found to be 1.72 ± 0.15. Also, in experiment [4], the “Proportion of cells going into G0, in words” value is given as “did not affect the proportion of cells going into G0”; the “G2/M (%)” value is given as 10%; the “S (%)” value turned out to be 5%; the “G0/G1 (%)” value was 85%.
